# Assay results published in US20240417463A1 (ADAGENE PTE, published 2024).
# B1: TAC2407 (antibody, V domains shown)
# VH: EVQLVESGGGLVKPGGSLRLSCAASGLTFERAWMNWVRQAPGKGLEWVGRIKRKTDGETTDYAAPVKGRFSISRDDSKNTLYLQMNSLKTEDTAVYYCAGSNRAFDIWGQGTMVTVSS
# VL: DIVMTQSPDSLAVSLGERATINCKSSQSVLYAGNNRNYLAWYQQKPGQPPKLLINQASTRASGVPDRFSGSGSGTEFTLIISSLQAEDVAIYYCQQYYTPPLAFGGGTKLEIK
# notes: Benchmark anti-CD47 antibody; also called 13H3; TJC4
# Experiments:
# [1] = target: human CD47 on the cell surface (CEM, Raji and other human tumor cells, human RBCs) (human) (UniProt Q08722); test: flow cytometry, human RBCs, batch 2
# [2] = target: T1, human CD47 on the cell surface (CEM, Raji and other human tumor cells, human RBCs) (human, UniProt Q08722 19-323); test: cell-based or functional assay
# [3] = target: T1, human CD47 on the cell surface (CEM, …); test: flow cytometry, Raji cells, batch 3; Raji tumor cells, batch 3
# [4] = target: T2, hCD47-ECD/Fc protein (Sinobiological) (human, UniProt Q08722 19-139, biotinylated in the Octet assay, sites not stated); test: BLI (Octet RED96), biotin-hCD47-ECD/Fc on SA sensors, 1:1 model;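 also: test antibodies as analytes, 300 s association then 300 s dissociation in running buffer, with benchmark reference antibodies run as controls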
# T2 construct: extracellular domain; Bought protein; also called human CD47-Fc antigen; recombinant hCD47-ECD/Fc; not shown: Fc part of the bought fusion protein
# [5] = target: T1, human CD47 on the cell surface (CEM, …); test: flow cytometry, CEM cells, batch 2; CEM tumor cells, batch 2
Molecule,max MFI [1],"EC50 of macrophage phagocytosis of CEM cells, donor A [2]","EC50 of macrophage phagocytosis of CEM cells, donor B [2]","Max. Phagocytosis (%), donor A [2]","Max. Phagocytosis (%), donor B [2]",EC50 [3],Kd [4],koff [4],kon [4],EC50 [5]
"Isotype control (RBC binding, Table 15) (antibody)",105 MFI,,,,,,,,,
B1,,4.4 nM,0.83 nM,29.7%,29%,1.97 nM,1.4 nM,0.000729 s⁻¹,520000 M⁻¹ s⁻¹,1.18 nM
